# Reference: doi:10.1101/2025.05.20.655035
# Read-outs that look alike come from different tables or passages of the source.
# How the values were obtained:
# His6-TCP4 (TCP4-His6) [1] = biological target: T1, His6-TCP4 (TCP4-His6) (Arabidopsis thaliana, UniProt Q8LPR5 1-420); experiment: EMSA
# T1 sequence: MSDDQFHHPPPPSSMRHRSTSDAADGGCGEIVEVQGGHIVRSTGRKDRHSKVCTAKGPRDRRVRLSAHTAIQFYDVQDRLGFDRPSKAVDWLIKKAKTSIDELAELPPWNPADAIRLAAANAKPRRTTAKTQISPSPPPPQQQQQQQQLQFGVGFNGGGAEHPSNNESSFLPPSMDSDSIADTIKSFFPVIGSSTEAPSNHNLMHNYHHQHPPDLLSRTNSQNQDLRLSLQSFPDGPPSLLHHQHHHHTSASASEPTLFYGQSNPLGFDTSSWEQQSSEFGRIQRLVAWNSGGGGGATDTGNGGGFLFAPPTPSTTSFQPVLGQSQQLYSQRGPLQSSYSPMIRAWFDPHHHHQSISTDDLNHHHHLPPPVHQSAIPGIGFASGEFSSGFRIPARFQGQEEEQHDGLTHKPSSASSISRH
# His6-TCP4 (TCP4-His6) [2] = biological target: T1, His6-TCP4 (TCP4-His6); experiment: EMSA; remark: listed apart in the source
Binder,binding result (His6-TCP4 (TCP4-His6) [1]),binding result (His6-TCP4 (TCP4-His6) [2])
BS1 (dsDNA) DNA 1: TCAATTCAACTAGGCCCAGTTTCCTCCTTC DNA 2: GAAGGAGGAAACTGGGCCTAGTTGAATTGA,no binding,
BS3-4 (dsDNA) DNA 1: CAACACACAAATGTGGTCCATTTCTTTTTGTTCATGTGGTCCAATTTTGGTATAT DNA 2: ATATACCAAAATTGGACCACATGAACAAAAAGAAATGGACCACATTTGTGTGTTG,,binds
BS2 (dsDNA) DNA 1: GTGATGTTAAAATGGTCCTAAGTTGACATA DNA 2: TATGTCAACTTAGGACCATTTTAACATCAC,,binds
BS5 (dsDNA) DNA 1: TTGCATATTGGTTGGTCCAAAAAGATCAAC DNA 2: GTTGATCTTTTTGGACCAACCAATATGCAA,no binding,
